Consider 4 molecules from paper PMC5290276, “A quantized mechanism for activation of pannexin channels” (Nature Communications, 2017).

The target of series [1] is 2(1CT)-GFP, GFP-tagged tandem dimer linking a full-length PANX1 subunit to a C-terminally truncated PANX1 subunit (human) (UniProt Q96RD7). Description: single-molecule photobleaching (TIRF microscopy), subunit counting; GFP-tagged concatemers in the plasma membrane of HEK293T cells 5-7 h after transfection; photobleaching steps fitted by binomial distributions assuming ~65% of GFP is fluorescent.

In series [2] the target is caspase 3-cleaved PANX1 (C-terminally cleaved human PANX1) (human). Description: SEC; purified PANX1 in amphipol A8-35 on an SRT-C 300 column (Sepax); oligomer size judged from the elution volume.
Series [3] deals with 3(2CT)-GFP, GFP-tagged trimeric concatemer of two full-length PANX1 subunits and a C-terminally truncated PANX1 subunit (human) (UniProt Q96RD7). Description: cross-linking; HEK293T cells surface-biotinylated (Sulfo-NHS-LC-Biotin, 4 °C, 30 min), then cross-linked with 1.8 mM disuccinimidyl suberate at 4 °C for 1 h; streptavidin precipitation and western blot; not quantitative according to the paper.

The target is the same in series [4]. Description: single-molecule photobleaching (TIRF microscopy), subunit counting; GFP-tagged concatemers in the plasma membrane of HEK293T cells 5-7 h after transfection; photobleaching steps fitted by binomial distributions assuming ~65% of GFP is fluorescent.
Series [5] concerns the molecule itself. In words: SEC; purified PANX1 in amphipol A8-35 on an SRT-C 300 column (Sepax); oligomer size judged from the elution volume.

Turning to “2(1CT)-GFP, GFP-tagged tandem dimer linking a full-length PANX1 subunit to a C-terminally truncated PANX1 subunit (from UniProt Q96RD7 1-426)”, the stoichiometry N in series [1] is 3. Take “caspase 3-cleaved PANX1 (C-terminally cleaved human PANX1) (domain or fragment)”: the stoichiometry N in series [2] is 6. With “3(2CT)-GFP, GFP-tagged trimeric concatemer of two full-length PANX1 subunits and a C-terminally truncated PANX1 subunit (from UniProt Q96RD7 1-426; Q96RD7 1-426)”, the stoichiometry N in series [3] and in series [4] was 2 in each case.

B1: full-length human PANX1 (Pannexin 1) with a C-terminal enterokinase cleavage site and hexahistidine tag (natural protein, UniProt Q96RD7-1 1-426, looked up)
chain: MAIAQLATEYVFSDFLLKEPTEPKFKGLRLELAVDKMVTCIAVGLPLLLISLAFAQEISIGTQISCFSPSSFSWRQAAFVDSYCWAAVQQKNSLQSESGNLPLWLHKFFPYILLLFAILLYLPPLFWRFAAAPHICSDLKFIMEELDKVYNRAIKAAKSARDLDMRDGACSVPGVTENLGQSLWEVSESHFKYPIVEQYLKTKKNSNNLIIKYISCRLLTLIIILLACIYLGYYFSLSSLSDEFVCSIKSGILRNDSTVPDQFQCKLIAVGIFQLLSVINLVVYVLLAPVVVYTLFVPFRQKTDVLKVYEILPTFDVLHFKSEGYNDLSLYNLFLEENISEVKSYKCLKVLENIKSSGQGIDPMLLLTNLGMIKMDVVDGKTPMSAEMREEQGNQTAELQGMNIDSETKANNGEKNARQRLLDSSC
notes: Pannexin 1 (PANX1), human, NM_015368, isoform 1, 426 a.a., full length; No removal of the tag by enterokinase is described; The purified protein was probed with anti-pentaHis in a purity western; also called full-length PANX1; source: Sf9 (baculovirus), purified from membranes (TALON cobalt resin, amphipol A8-35 exchange, SEC)
Turning to B1, the “stoichiometry N” value in series [5] came out at 6.
